The test system of series [1] is insulin-induced hypoglycemia rat model. Briefly: Efficacy in insulin-induced hypoglycemic rat model. In kind it is in vivo, SD rats. The following applies: insulin 0.65 IU/kg subcutaneous at T0, phosphate buffer at 45 min (model control).
Another series can be described thus: in vitro. Conditions: human, human kidney microsomes.
The subject of a further series is human kidney microsomes. Briefly: Stability in human kidney microsome incubation system.
The target in series [2] is T1, human glucose-dependent insulinotropic polypeptide receptor (GIPR) (human, UniProt P48546 22-466).
T1 sequence (looked up): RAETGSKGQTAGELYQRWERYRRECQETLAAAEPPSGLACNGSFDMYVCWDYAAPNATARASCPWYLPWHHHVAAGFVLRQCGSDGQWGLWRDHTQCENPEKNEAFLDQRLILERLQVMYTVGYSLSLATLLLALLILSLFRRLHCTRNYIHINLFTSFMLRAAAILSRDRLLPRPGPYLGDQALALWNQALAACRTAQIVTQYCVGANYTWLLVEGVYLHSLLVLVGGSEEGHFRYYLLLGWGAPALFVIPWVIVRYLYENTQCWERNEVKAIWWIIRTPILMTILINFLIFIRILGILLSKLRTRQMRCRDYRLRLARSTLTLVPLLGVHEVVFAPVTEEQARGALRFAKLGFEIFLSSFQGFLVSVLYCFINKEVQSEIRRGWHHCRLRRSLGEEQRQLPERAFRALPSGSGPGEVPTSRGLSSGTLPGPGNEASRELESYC
Briefly: cell-based or functional assay.

For series [3], the target named is human glucagon-like peptide-1 receptor (GLP-1R) (human, UniProt P43220 24-463). Briefly: cell-based or functional assay.
Series [4] has as its target human glucagon receptor (GCGR) (human, UniProt P47871 26-477). Briefly: cell-based or functional assay.

Counter-ions that a name gives are not always drawn. [ ]: non-standard residue; d: D form. Aib = CC(C)(N)C(=O)O

One may read the half-life as the time needed for the level to fall by half in the phase considered. Lower therefore signals rapid decline. A word on the amount remaining: it is the share of the starting amount still present when the sample was taken.

human glucagon receptor (GCGR), sequence (P47871 26-477): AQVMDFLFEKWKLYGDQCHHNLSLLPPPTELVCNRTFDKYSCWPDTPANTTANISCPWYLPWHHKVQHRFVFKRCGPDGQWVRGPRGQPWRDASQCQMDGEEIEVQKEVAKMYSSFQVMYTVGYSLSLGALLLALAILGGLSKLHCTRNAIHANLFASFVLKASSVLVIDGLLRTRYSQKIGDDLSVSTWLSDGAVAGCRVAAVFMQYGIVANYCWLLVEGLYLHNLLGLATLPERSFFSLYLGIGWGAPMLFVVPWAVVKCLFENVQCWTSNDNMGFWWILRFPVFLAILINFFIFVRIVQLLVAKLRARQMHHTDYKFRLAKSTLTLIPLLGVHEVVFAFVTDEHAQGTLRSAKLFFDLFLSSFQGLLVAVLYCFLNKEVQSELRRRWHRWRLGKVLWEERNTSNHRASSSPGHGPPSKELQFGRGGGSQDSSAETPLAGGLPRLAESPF

Regarding “Insulin: insulin, 0.65 IU/kg subcutaneous, used to induce hypoglycemia in the modeling groups [reference compound]”, in series [1], the “Blood glucose 60 min” value is reported as 3.47 mmol/L, the “Blood glucose 75 min” value is on record as 4.15 mmol/L, the “Blood glucose 90 min” value was determined as 4.85 mmol/L and the “Blood glucose 105 min” value came out at 5.42 mmol/L.
In “in vitro”, `CN(C)CCCOc1nn(Cc2ccccc2)c2ccccc12` [Benzydamine hydrochloride, benzydamine hydrochloride] gave a half-life at 1 μM of 1.1 h; an amount remaining at 0.25 h, 1 μM of 83.1%; a share remaining at 0.5 h, 1 μM of 70.8%; a fraction remaining at 1 h, 1 μM of 54.2%. In the series on human kidney microsomes (With NADPH), the “Percentage residues 0 min” value worked out at 100.0% and the “Percentage residues 120 min” value came to 28.12%. In addition, in the series on human kidney microsomes (Without NADPH), the “Percentage residues 0 min” value turned out to be 100.0%, the “Percentage residues 15 min” value turned out to be 85.59%, the “Percentage residues 30 min” value is on record as 86.82% and the “Percentage residues 60 min” value is 90.39%. Besides, in the series with human kidney microsomes (Without NADPH), the “Percentage residues 120 min” value is on record as 90.95%.

B1: Glucagon analog compound 41 (peptide)
peptide: H-HSQGTFTSDYSKYLDV[Aib]RAQEFVQWLEST-OH
SMILES: CC(C)C[C@H](NC(=O)[C@H](Cc1c[nH]c2ccccc12)NC(=O)[C@H](CCC(N)=O)NC(=O)[C@@H](NC(=O)[C@H](Cc1ccccc1)NC(=O)[C@H](CCC(=O)O)NC(=O)[C@H](CCC(N)=O)NC(=O)[C@H](C)NC(=O)[C@H](CCCNC(=N)N)NC(=O)C(C)(C)NC(=O)[C@@H](NC(=O)[C@H](CC(=O)O)NC(=O)[C@H](CC(C)C)NC(=O)[C@H](Cc1ccc(O)cc1)NC(=O)[C@H](CCCCN)NC(=O)[C@H](CO)NC(=O)[C@H](Cc1ccc(O)cc1)NC(=O)[C@H](CC(=O)O)NC(=O)[C@H](CO)NC(=O)[C@@H](NC(=O)[C@H](Cc1ccccc1)NC(=O)[C@@H](NC(=O)CNC(=O)[C@H](CCC(N)=O)NC(=O)[C@H](CO)NC(=O)[C@@H](N)Cc1c[nH]cn1)[C@@H](C)O)[C@@H](C)O)C(C)C)C(C)C)C(=O)N[C@@H](CCC(=O)O)C(=O)N[C@@H](CO)C(=O)N[C@H](C(=O)O)[C@@H](C)O
Consider B1, for which, in series [2], the “GIPR % Activity relative to native GIP, cAMP HTRF” value is below 0.07% and the “GIPR EC50 (nM), cAMP HTRF in CHO-K1/GIPR cells” value (“GIPR EC50 (nM), cAMP HTRF” for short) was above 100 nM. Further, in series [3], the “GLP-1R % Activity relative to native GLP-1, cAMP HTRF” value came to 0.231% and the “GLP-1R EC50 (nM), cAMP HTRF in CHO-GLP-1R cells” value (from here on “GLP-1R EC50 (nM), cAMP HTRF”) came out at 116 nM. Besides, in series [4], the “Human GCGR receptor EC50 (nM), cAMP HTRF in CHO-K1/GCGR/CRE-Luc cells” value was 0.058 nM and the “Relative activity (%) (normalized by the activity of the native glucagon), cAMP HTRF” value was determined as 333%.

B2: Glucagon analog compound 43 (peptide)
peptide: H-HSHGTFTSDYSKYLDL[Aib]RAQEFVQWLEST-OH
SMILES: CC(C)C[C@H](NC(=O)[C@H](Cc1ccc(O)cc1)NC(=O)[C@H](CCCCN)NC(=O)[C@H](CO)NC(=O)[C@H](Cc1ccc(O)cc1)NC(=O)[C@H](CC(=O)O)NC(=O)[C@H](CO)NC(=O)[C@@H](NC(=O)[C@H](Cc1ccccc1)NC(=O)[C@@H](NC(=O)CNC(=O)[C@H](Cc1c[nH]cn1)NC(=O)[C@H](CO)NC(=O)[C@@H](N)Cc1c[nH]cn1)[C@@H](C)O)[C@@H](C)O)C(=O)N[C@@H](CC(=O)O)C(=O)N[C@@H](CC(C)C)C(=O)NC(C)(C)C(=O)N[C@@H](CCCNC(=N)N)C(=O)N[C@@H](C)C(=O)N[C@@H](CCC(N)=O)C(=O)N[C@@H](CCC(=O)O)C(=O)N[C@@H](Cc1ccccc1)C(=O)N[C@H](C(=O)N[C@@H](CCC(N)=O)C(=O)N[C@@H](Cc1c[nH]c2ccccc12)C(=O)N[C@@H](CC(C)C)C(=O)N[C@@H](CCC(=O)O)C(=O)N[C@@H](CO)C(=O)N[C@H](C(=O)O)[C@@H](C)O)C(C)C
Turning to B2, in series [4], the “Human GCGR receptor EC50 (nM), cAMP HTRF in CHO-K1/GCGR/CRE-Luc cells” value came out at 0.052 nM and the “Relative activity (%) (normalized by the activity of the native glucagon), cAMP HTRF” value was 371%.

B3: Glucagon analog compound 39 (peptide)
peptide: H-HSQGTFTSDYSKYLDT[Aib]RAQEFVQWLEST-OH
SMILES: CC(C)C[C@H](NC(=O)[C@H](Cc1c[nH]c2ccccc12)NC(=O)[C@H](CCC(N)=O)NC(=O)[C@@H](NC(=O)[C@H](Cc1ccccc1)NC(=O)[C@H](CCC(=O)O)NC(=O)[C@H](CCC(N)=O)NC(=O)[C@H](C)NC(=O)[C@H](CCCNC(=N)N)NC(=O)C(C)(C)NC(=O)[C@@H](NC(=O)[C@H](CC(=O)O)NC(=O)[C@H](CC(C)C)NC(=O)[C@H](Cc1ccc(O)cc1)NC(=O)[C@H](CCCCN)NC(=O)[C@H](CO)NC(=O)[C@H](Cc1ccc(O)cc1)NC(=O)[C@H](CC(=O)O)NC(=O)[C@H](CO)NC(=O)[C@@H](NC(=O)[C@H](Cc1ccccc1)NC(=O)[C@@H](NC(=O)CNC(=O)[C@H](CCC(N)=O)NC(=O)[C@H](CO)NC(=O)[C@@H](N)Cc1c[nH]cn1)[C@@H](C)O)[C@@H](C)O)[C@@H](C)O)C(C)C)C(=O)N[C@@H](CCC(=O)O)C(=O)N[C@@H](CO)C(=O)N[C@H](C(=O)O)[C@@H](C)O
Regarding B3, in series [2], the “GIPR % Activity relative to native GIP, cAMP HTRF” value is below 0.07% and the “GIPR EC50 (nM), cAMP HTRF” value was above 100 nM. Also, in series [3], the “GLP-1R % Activity relative to native GLP-1, cAMP HTRF” value came out at 0.212% and the “GLP-1R EC50 (nM), cAMP HTRF” value was determined as 127 nM. In series [4], the “Human GCGR receptor EC50 (nM), cAMP HTRF in CHO-K1/GCGR/CRE-Luc cells” value turned out to be 0.072 nM and the “Relative activity (%) (normalized by the activity of the native glucagon), cAMP HTRF” value turned out to be 268%.

B4: Glucagon analog compound 40 (peptide)
peptide: H-HSQGTFTSDYSKYLDL[Aib]RAQEFVQWLEST-OH
SMILES: CC(C)C[C@H](NC(=O)[C@H](Cc1ccc(O)cc1)NC(=O)[C@H](CCCCN)NC(=O)[C@H](CO)NC(=O)[C@H](Cc1ccc(O)cc1)NC(=O)[C@H](CC(=O)O)NC(=O)[C@H](CO)NC(=O)[C@@H](NC(=O)[C@H](Cc1ccccc1)NC(=O)[C@@H](NC(=O)CNC(=O)[C@H](CCC(N)=O)NC(=O)[C@H](CO)NC(=O)[C@@H](N)Cc1c[nH]cn1)[C@@H](C)O)[C@@H](C)O)C(=O)N[C@@H](CC(=O)O)C(=O)N[C@@H](CC(C)C)C(=O)NC(C)(C)C(=O)N[C@@H](CCCNC(=N)N)C(=O)N[C@@H](C)C(=O)N[C@@H](CCC(N)=O)C(=O)N[C@@H](CCC(=O)O)C(=O)N[C@@H](Cc1ccccc1)C(=O)N[C@H](C(=O)N[C@@H](CCC(N)=O)C(=O)N[C@@H](Cc1c[nH]c2ccccc12)C(=O)N[C@@H](CC(C)C)C(=O)N[C@@H](CCC(=O)O)C(=O)N[C@@H](CO)C(=O)N[C@H](C(=O)O)[C@@H](C)O)C(C)C
For B4, in series [2], the “GIPR % Activity relative to native GIP, cAMP HTRF” value is below 0.07% and the “GIPR EC50 (nM), cAMP HTRF” value is above 100 nM. In series [3], the “GLP-1R % Activity relative to native GLP-1, cAMP HTRF” value worked out at 0.192% and the “GLP-1R EC50 (nM), cAMP HTRF” value turned out to be 140 nM. Moreover, in series [4], the “Human GCGR receptor EC50 (nM), cAMP HTRF in CHO-K1/GCGR/CRE-Luc cells” value amounted to 0.06 nM and the “Relative activity (%) (normalized by the activity of the native glucagon), cAMP HTRF” value worked out at 318%.

B5: Glucagon analog compound 42 (peptide)
peptide: H-HSQGTFTSDYSKYLDI[Aib]RAQEFVQWLEST-OH
SMILES: CC[C@H](C)[C@H](NC(=O)[C@H](CC(=O)O)NC(=O)[C@H](CC(C)C)NC(=O)[C@H](Cc1ccc(O)cc1)NC(=O)[C@H](CCCCN)NC(=O)[C@H](CO)NC(=O)[C@H](Cc1ccc(O)cc1)NC(=O)[C@H](CC(=O)O)NC(=O)[C@H](CO)NC(=O)[C@@H](NC(=O)[C@H](Cc1ccccc1)NC(=O)[C@@H](NC(=O)CNC(=O)[C@H](CCC(N)=O)NC(=O)[C@H](CO)NC(=O)[C@@H](N)Cc1c[nH]cn1)[C@@H](C)O)[C@@H](C)O)C(=O)NC(C)(C)C(=O)N[C@@H](CCCNC(=N)N)C(=O)N[C@@H](C)C(=O)N[C@@H](CCC(N)=O)C(=O)N[C@@H](CCC(=O)O)C(=O)N[C@@H](Cc1ccccc1)C(=O)N[C@H](C(=O)N[C@@H](CCC(N)=O)C(=O)N[C@@H](Cc1c[nH]c2ccccc12)C(=O)N[C@@H](CC(C)C)C(=O)N[C@@H](CCC(=O)O)C(=O)N[C@@H](CO)C(=O)N[C@H](C(=O)O)[C@@H](C)O)C(C)C
Consider B5, for which, in series [2], the “GIPR % Activity relative to native GIP, cAMP HTRF” value was below 0.07% and the “GIPR EC50 (nM), cAMP HTRF” value was above 100 nM. In addition, in series [3], the “GLP-1R % Activity relative to native GLP-1, cAMP HTRF” value turned out to be 0.291% and the “GLP-1R EC50 (nM), cAMP HTRF” value turned out to be 92.1 nM. Also, in series [4], the “Human GCGR receptor EC50 (nM), cAMP HTRF in CHO-K1/GCGR/CRE-Luc cells” value is 0.093 nM and the “Relative activity (%) (normalized by the activity of the native glucagon), cAMP HTRF” value was 207%.

B6: Glucagon analog compound 47 (peptide)
peptide: H-HSHGTFTSDYSKYLDL[Aib]RAQEFVEWLEST-OH
SMILES: CC(C)C[C@H](NC(=O)[C@H](Cc1ccc(O)cc1)NC(=O)[C@H](CCCCN)NC(=O)[C@H](CO)NC(=O)[C@H](Cc1ccc(O)cc1)NC(=O)[C@H](CC(=O)O)NC(=O)[C@H](CO)NC(=O)[C@@H](NC(=O)[C@H](Cc1ccccc1)NC(=O)[C@@H](NC(=O)CNC(=O)[C@H](Cc1c[nH]cn1)NC(=O)[C@H](CO)NC(=O)[C@@H](N)Cc1c[nH]cn1)[C@@H](C)O)[C@@H](C)O)C(=O)N[C@@H](CC(=O)O)C(=O)N[C@@H](CC(C)C)C(=O)NC(C)(C)C(=O)N[C@@H](CCCNC(=N)N)C(=O)N[C@@H](C)C(=O)N[C@@H](CCC(N)=O)C(=O)N[C@@H](CCC(=O)O)C(=O)N[C@@H](Cc1ccccc1)C(=O)N[C@H](C(=O)N[C@@H](CCC(=O)O)C(=O)N[C@@H](Cc1c[nH]c2ccccc12)C(=O)N[C@@H](CC(C)C)C(=O)N[C@@H](CCC(=O)O)C(=O)N[C@@H](CO)C(=O)N[C@H](C(=O)O)[C@@H](C)O)C(C)C
Turning to B6, in series [4], the “Human GCGR receptor EC50 (nM), cAMP HTRF in CHO-K1/GCGR/CRE-Luc cells” value worked out at 0.076 nM and the “Relative activity (%) (normalized by the activity of the native glucagon), cAMP HTRF” value is 253%.

For the origin of these results see US20240279298A1 (BEIJING TUO JIE BIOPHARMACEUTICAL CO. LTD., priority 2021, published 2024).
